Data from IntAct's records for PubMed 29051512.

B1: CMRF35-like molecule 7 (Homo sapiens), A8K4G0 (parent)
chain: MWLPPALLLLSLSGCFSIQGPESVRAPEQGSLTVQCHYKQGWETYIKWWCRGVRWDTCKILIETRGSEQGEKSDRVSIKDNQKDRTFTVTMEGLRRDDADVYWCGIERRGPDLGTQVKVIVDPEGAASTTASSPTNSNMAVFIGSHKRNHYMLLVFVKVPILLILVTAILWLKGSQRVPEEPGEQPIYMNFSEPLTKDMAT
partner: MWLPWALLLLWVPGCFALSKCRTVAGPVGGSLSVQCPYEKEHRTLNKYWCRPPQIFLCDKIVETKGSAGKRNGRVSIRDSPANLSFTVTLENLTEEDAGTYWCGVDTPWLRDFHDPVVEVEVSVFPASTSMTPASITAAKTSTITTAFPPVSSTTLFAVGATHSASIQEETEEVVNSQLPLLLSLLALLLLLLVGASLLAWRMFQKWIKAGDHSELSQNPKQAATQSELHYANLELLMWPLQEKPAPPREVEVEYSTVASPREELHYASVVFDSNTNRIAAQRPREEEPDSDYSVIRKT
B2: CMRF35-like molecule 7 (Homo sapiens), A8K4G0 (parent)
chain: B1 chain
partner: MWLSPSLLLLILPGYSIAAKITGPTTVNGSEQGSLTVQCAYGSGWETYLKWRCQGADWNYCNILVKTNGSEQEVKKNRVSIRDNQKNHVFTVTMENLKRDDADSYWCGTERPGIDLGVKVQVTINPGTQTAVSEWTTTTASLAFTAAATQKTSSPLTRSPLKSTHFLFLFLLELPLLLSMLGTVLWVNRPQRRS
B3: CMRF35-like molecule 7 (Homo sapiens), A8K4G0 (parent)
chain: B1 chain
partner: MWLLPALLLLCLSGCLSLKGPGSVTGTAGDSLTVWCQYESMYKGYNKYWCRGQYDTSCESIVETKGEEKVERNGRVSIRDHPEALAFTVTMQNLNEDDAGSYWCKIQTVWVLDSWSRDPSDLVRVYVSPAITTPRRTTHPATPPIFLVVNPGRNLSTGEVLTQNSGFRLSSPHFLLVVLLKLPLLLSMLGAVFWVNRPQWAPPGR
B4: CMRF35-like molecule 7 (Homo sapiens), A8K4G0 (parent)
chain: B1 chain
partner: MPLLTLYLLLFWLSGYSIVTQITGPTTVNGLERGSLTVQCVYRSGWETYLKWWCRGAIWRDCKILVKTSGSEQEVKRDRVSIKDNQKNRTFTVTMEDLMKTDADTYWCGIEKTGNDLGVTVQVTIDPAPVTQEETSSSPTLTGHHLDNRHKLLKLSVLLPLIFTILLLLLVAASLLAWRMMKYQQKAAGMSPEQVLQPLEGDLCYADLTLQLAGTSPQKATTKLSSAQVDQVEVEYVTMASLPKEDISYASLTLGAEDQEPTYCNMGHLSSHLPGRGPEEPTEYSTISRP
B5: CMRF35-like molecule 7 (Homo sapiens), A8K4G0 (parent)
chain: B1 chain
partner: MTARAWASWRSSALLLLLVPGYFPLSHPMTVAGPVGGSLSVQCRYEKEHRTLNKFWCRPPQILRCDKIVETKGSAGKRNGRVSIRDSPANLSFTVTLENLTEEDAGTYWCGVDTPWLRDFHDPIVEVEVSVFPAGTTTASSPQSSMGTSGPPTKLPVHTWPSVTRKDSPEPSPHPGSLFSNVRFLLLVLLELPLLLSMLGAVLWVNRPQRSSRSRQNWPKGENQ

Variants of: B1
Details: with clm8_human CD300A

effect of a mutation on the interaction	Variant
decreasing interaction strength	MWLPPALLLLSLSGCFSIQGPESVRAPAGGSLTVQCHYKQGWETYIKWWCRGVRWDTCKILIETRGSEQGEKSDRVSIKDNQKDRTFTVTMEGLRRDDADVYWCGIERRGPDLGTQVKVIVDPEGAASTTASSPTNSNMAVFIGSHKRNHYMLLVFVKVPILLILVTAILWLKGSQRVPEEPGEQPIYMNFSEPLTKDMAT [E28A;Q29G]

Variants of: B2
Details: with clm5_human CD300LD

effect of a mutation on the interaction	Variant
decreasing interaction strength	MWLPPALLLLSLSGCFSIQGPESVRAPAGGSLTVQCHYKQGWETYIKWWCRGVRWDTCKILIETRGSEQGEKSDRVSIKDNQKDRTFTVTMEGLRRDDADVYWCGIERRGPDLGTQVKVIVDPEGAASTTASSPTNSNMAVFIGSHKRNHYMLLVFVKVPILLILVTAILWLKGSQRVPEEPGEQPIYMNFSEPLTKDMAT [E28A;Q29G]

Variants of: B3
Details: with clm2_human CD300E

effect of a mutation on the interaction	Variant
decreasing interaction strength	MWLPPALLLLSLSGCFSIQGPESVRAPAGGSLTVQCHYKQGWETYIKWWCRGVRWDTCKILIETRGSEQGEKSDRVSIKDNQKDRTFTVTMEGLRRDDADVYWCGIERRGPDLGTQVKVIVDPEGAASTTASSPTNSNMAVFIGSHKRNHYMLLVFVKVPILLILVTAILWLKGSQRVPEEPGEQPIYMNFSEPLTKDMAT [E28A;Q29G]

Variants of: B4
Details: with clm1_human CD300LF

effect of a mutation on the interaction	Variant
decreasing interaction strength	MWLPPALLLLSLSGCFSIQGPESVRAPAGGSLTVQCHYKQGWETYIKWWCRGVRWDTCKILIETRGSEQGEKSDRVSIKDNQKDRTFTVTMEGLRRDDADVYWCGIERRGPDLGTQVKVIVDPEGAASTTASSPTNSNMAVFIGSHKRNHYMLLVFVKVPILLILVTAILWLKGSQRVPEEPGEQPIYMNFSEPLTKDMAT [E28A;Q29G]

Variants of: B5
Details: with clm6_human CD300C

effect of a mutation on the interaction	Variant
decreasing interaction strength	MWLPPALLLLSLSGCFSIQGPESVRAPAGGSLTVQCHYKQGWETYIKWWCRGVRWDTCKILIETRGSEQGEKSDRVSIKDNQKDRTFTVTMEGLRRDDADVYWCGIERRGPDLGTQVKVIVDPEGAASTTASSPTNSNMAVFIGSHKRNHYMLLVFVKVPILLILVTAILWLKGSQRVPEEPGEQPIYMNFSEPLTKDMAT [E28A;Q29G]
with no effect	MWLPPALLLLSLSGCFSIQGPESVRAPEQGSLTVQCHYKQGWETYIKWWCRGVRWDTCKILIETRGSEQGEKSDRVSIKDNQKDRTFTVTMEGLGRGDADVYWCGIERRGPDLGTQVKVIVDPEGAASTTASSPTNSNMAVFIGSHKRNHYMLLVFVKVPILLILVTAILWLKGSQRVPEEPGEQPIYMNFSEPLTKDMAT [R95G;D97G]
